Experimental findings from patent US10829756B2, “Discovery of enzymes from the alpha-keto acid decarboxylase family” (priority 2015, dated 2020) are described below.

Substrate in data set [1]: CCCCCCC(=O)C(=O)O
Description: Steady-state kinetics of 2-ketoacid decarboxylase (ADH/NADH coupled). It is filed as biochemical, Lactococcus lactis. Particulars: other: pH 7.5, 21° C. As for the experimental part:
(§1) Since KIVD can already efficiently utilize C8 as a substrate, enzyme specificity is of primary importance. Therefore each mutant was screened against a panel of 2-ketoacid substrates in order to assess the specificity and activity of each mutant. (FIG. 11) This assay was performed using a high-throughput pH-dependent colorimetric assay of enzyme activity in crude cell extracts. Mutations that increased specificity for C8 were then combined to produce combinatorial mutants and screened for specificity with the colorimetric assays. […] The engineered enzyme KIVD_VLV has a 600-fold improvement in specificity between C8 and C5, in terms of catalytic efficiency, relative to the native KIVD.
(§2) For the native KIVD and KIVD_VLV mutant, 2 ml overnight cultures of XL1B cells were transformed with pQE9 containing N-terminal his-tagged KIVD enzymes and grown in Terrific Broth (BP biomedical, Cat#3046-042) with 50 μg/mL of carbenicillin. (Fisher scientific, Cat# BP2648-5) For the GEOs, 2 ml overnight cultures of BLR cells were transformed with pet29b+ plasmid containing N-terminal his-tagged GEOs, and grown in Terrific Broth with 50 μg/mL of kanamycin. (Fisher scientific, Cat# BP906-5) These cultures were diluted 1:1000 in 500 mL of Terrific Broth with 1 mM MgSO4, 1% glucose, and 50ug/mL of corresponding antibiotics, then grown at 37° C. for 24 hours. Cultures were pelleted down at 4700 rpm for 10 mins and resuspended in auto-induction media (LB broth, 1 mM MgSO4, 0.1 mM TPP, 1×NPS, and 1×5052) for induction at 18° C. for 34 hours. At the end of induction, cells were centrifuged (4700 rpm, 4° C., 20 minutes), supernatant was removed, and cells were resuspended in 40 mL lysis buffer (100 mM Hepes pH 7.5, 100 mM NaCl, 10% glycerol, 0.1 mM TPP, 1 mM MgSO4, 10 mM Imidazole, 1 mM TCEP) and 1 mM PMSF) and sonicated for 2 minutes. Lysed cells were centrifuged at 4700 rpm at 4° C. for 60 mins to remove cell debris. […] Protein concentrations were determined using a Synergy H1 spectrophotometer (Biotek) by measuring absorbance at 280 nm using their calculated extinction coefficients with ExPASy ProtParam Tool.^33 All other buffers and salts were purchased from Fisher Scientific unless otherwise specified.
(§3) The kcat and KM values of selective KIVD mutants were measured for the substrates: C3, C5, isoC5, and C8. […] Activity was measured at 0.005 mM to 10 mM substrates. […] Absorbance readings were taken every 1-minute at OD340 at 21° C. for 60 minutes using the Synergy H1. Kinetic parameters (kcat and KM) were determined by fitting initial velocity versus substrate concentration data to the Michaelis-Menten equation.

Substrate in data set [2]: CCCC(=O)C(=O)O
The description is as above. It is filed as biochemical, Lactococcus lactis. The following applies: other: pH 7.5, 21° C. The method, then: as §1, §2, §3

B1: KIVD variant G402V/M538L/F542V (KIVD_VLV), SEQ ID NO:3 (Lactococcus lactis subsp. lactis; F542V/G402V/M538L) (protein)
chain: MYTVGDYLLDRLHELGIEEIFGVPGDYNLQFLDQIISRKDMKWVGNANELNASYMADGYARTKKAAAFLTTFGVGELSAVNGLAGSYAENLPVVEIVGSPTSKVQNEGKFVHHTLADGDFKHFMKMHEPVTAARTLLTAENATVEIDRVLSALLKERKPVYINLPVDVAAAKAEKPSLPLKKENSTSNTSDQEILNKIQESLKNAKKPIVITGHEIISFGLEKTVSQFISKTKLPITTLNFGKSSVDEALPSFLGIYNGKLSEPNLKEFVESADFILMLGVKLTDSSTGAFTHHLNENKMISLNIDEGKIFNESIQNFDFESLISSLLDLSEIEYKGKYIDKKQEDFVPSNALLSQDRLWQAVENLTQSNETIVAEQGTSFFGASSIFLKPKSHFIGQPLWVSIGYTFPAALGSQIADKESRHLLFIGDGSLQLTVQELGLAIREKINPICFIINNDGYTVEREIHGPNQSYNDIPMWNYSKLPESFGATEERVVSKIVRTENEFVSVMKEAQADPNRMYWIELILAKEDAPKVLKKLGKLVAEQNKS
As for B1, in data set [1], the Km (in general, the concentration of substrate that gives half-maximal velocity) is listed as 0.18 ± 0.05 mM; the turnover number (kcat) (in general, the number of substrate molecules converted per active site and unit of time at saturation) amounted to 0.5 ± 0.03 s⁻¹. Besides, in data set [2], the Michaelis constant (Km) is given as 10.0 ± 1.0 mM and the catalytic constant (kcat) amounted to 0.013 ± 0.001 s⁻¹.
